This passage reports protein stability index results from the supplement of paper PMC10724198.

The test system of data set [1] is Saccharomyces cerevisiae. Put plainly: protein stability index of tFT-peptide fusion in wild type (PSI (0-1 scale)); higher = more stable (slower turnover). Conditions: genetic background: wild type. Here is the method: (§1)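 MPS profiling in S. cerevisiae of two library types built from selected 12-aa C-degron peptides (IN1, IN2, LN1, LN3, VN2, R1-R5, W1-W3, Atg1 and Rpa12 C-termini): saturation mutagenesis libraries and C-terminal +1 capping libraries (13 aa). Each peptide is fused to the C-terminus of a sfGFP-mCherry timer, after a GGGS linker. Cells are FACS-sorted into 8 mCherry/sfGFP bins and sequenced. PSI runs from 0 (unstable) to 1 (stable), measured once in wild type and in the das1Δ or doa10Δ background.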

Data set [2] has as its system Saccharomyces cerevisiae. Put plainly: protein stability index of tFT-peptide fusion in deletion strain of DAS1 (PSI (0-1 scale)); higher = more stable (slower turnover). On the procedure:
as §1
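Throughout, for protein stability index of tFT-peptide fusion in deletion strain of DAS1: PSI is a weighted mean of each variant's read distribution over the sorted stability bins, computed only for variants having over 10 reads in total.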
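Throughout, for protein stability index of tFT-peptide fusion in wild type: PSI derived as read-weighted mean over the 8 sorting bins, only variants exceeding 10 total reads kept, mCherry placed adjacent to the peptide and sfGFP distal.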

As for LKILRQKMNHQL, the protein stability index in data set [1] turned out to be 0.172; in data set [2] it was 0.67.

Turning to LKILRQKMNHQNG, the protein stability index came out at 0.657 in data set [1] and 0.662 in data set [2].

Consider LKILRQKMNHQNI, for which the protein stability index was 0.65 in data set [1] and 0.685 in data set [2].

As for LKILRQKMNHQNM, the protein stability index in data set [1] amounted to 0.601; in data set [2], 0.592.

For LKILRQKMNHQNW, the protein stability index in data set [1] was 0.659; in data set [2] it was 0.67.

As to LKILRQKMNHQP, the figures for the protein stability index in data set [1] and in data set [2] were 0.373 and 0.677, respectively.

Take LKILRQKMNNQN: the protein stability index in data set [1] amounted to 0.267; in data set [2], 0.707.

LKILRQKMTHQN: the values for the protein stability index in data set [1] and in data set [2] were 0.273 and 0.688, respectively.

On to LKILRQKQNHQN, for which the protein stability index in data set [1] is 0.302; in data set [2] it was 0.64.

In the case of LKILRQKWNHQN, the results for the protein stability index in data set [1] and in data set [2] were 0.194 and 0.662, respectively.

In the case of LKILRQKYNHQN, the protein stability index in data set [1] came to 0.189; in data set [2], 0.7.

For the sequence LKILRQQMNHQN, the protein stability index in data set [1] was determined as 0.206; in data set [2] it was 0.584.

Consider LKINRQKMNHQN, for which the figures for the protein stability index in data set [1] and in data set [2] were 0.209 and 0.682, respectively.

As for LKIRRQKMNHQN, the figures for the protein stability index in data set [1] and in data set [2] were 0.246 and 0.687, respectively.

Consider LKITRQKMNHQN, for which the protein stability index in data set [1] was determined as 0.229; in data set [2], 0.674.

On to LVILRQKMNHQN, for which the protein stability index stood at 0.135 in data set [1] and 0.675 in data set [2].

Regarding LVVSLSCVACIN, the protein stability index in data set [1] worked out at 0.0181; in data set [2], 0.0593.

In the case of LVVYASCVACIN, the protein stability index in data set [1] was found to be 0.023; in data set [2] it was 0.0371.

As to LVVYFSCVACIN, the protein stability index in data set [1] is 0.0194; in data set [2], 0.0148.

For LVVYLHCVACIN, the protein stability index in data set [1] worked out at 0.0158; in data set [2], 0.0327.

As for LVVYLRCVACIN, the results for the protein stability index in data set [1] and in data set [2] were 0.0199 and 0.0318, respectively.

LVVYLSCCACIN: the protein stability index in data set [1] was found to be 0.0859; in data set [2] it was 0.138.

LVVYLSCIACIN: the protein stability index in data set [1] amounted to 0.0141; in data set [2] it was 0.0218.

With LVVYLSCLACIN, the values for the protein stability index in data set [1] and in data set [2] were 0.0182 and 0.0537, respectively.

As to LVVYLSCVACIND, the protein stability index in data set [1] worked out at 0.0204; in data set [2], 0.0356.

For LVVYLSCVACING, the protein stability index in data set [1] came out at 0.0204; in data set [2], 0.0326.

On to LVVYLSCVACINN, for which the protein stability index in data set [1] stood at 0.0233; in data set [2], 0.037.

LVVYLSCVACIR: the protein stability index in data set [1] was 0.0163; in data set [2], 0.0325.

For LVVYLSCVACIY, the protein stability index in data set [1] stood at 0.0122; in data set [2] it was 0.0359.

Turning to LVVYLSCVARIN, the protein stability index in data set [1] worked out at 0.0258; in data set [2] it was 0.0375.

Turning to LVVYLSCVATIN, the figures for the protein stability index in data set [1] and in data set [2] were 0.0174 and 0.0278, respectively.

Turning to LVVYLSCVAVIN, the figures for the protein stability index in data set [1] and in data set [2] were 0.0169 and 0.0276, respectively.

In the case of LVVYLSCVCCIN, the values for the protein stability index in data set [1] and in data set [2] were 0.461 and 0.415, respectively.

Regarding LVVYLSCVVCIN, the protein stability index in data set [1] was 0.0309; in data set [2] it was 0.0986.

In the case of LVVYLSKVACIN, the protein stability index worked out at 0.0955 in data set [1] and 0.38 in data set [2].

Regarding LVVYLSTVACIN, the protein stability index in data set [1] is 0.0656; in data set [2], 0.161.

LVVYLSWVACIN: the protein stability index in data set [1] was 0.0137; in data set [2] it was 0.0348.

In the case of LVVYPSCVACIN, the protein stability index was found to be 0.248 in data set [1] and 0.337 in data set [2].

For LVVYVSCVACIN, the protein stability index came to 0.0192 in data set [1] and 0.0341 in data set [2].

In the case of LVVYWSCVACIN, the protein stability index in data set [1] turned out to be 0.0151; in data set [2], 0.0704.

For the sequence NLIQPLPVQFLN, the protein stability index in data set [1] worked out at 0.0875; in data set [2], 0.582.

Turning to NRWRVGLWRGAS, the protein stability index in data set [1] was 0.454; in data set [2] it was 0.685.

Turning to PDHRNHLIKLLN, the protein stability index was found to be 0.0948 in data set [1] and 0.589 in data set [2].

Regarding PDKANHLIKLLN, the protein stability index was determined as 0.183 in data set [1] and 0.594 in data set [2].

Consider PDKGNHLIKLLN, for which the protein stability index in data set [1] stood at 0.23; in data set [2], 0.635.

Turning to PDKINHLIKLLN, the protein stability index in data set [1] turned out to be 0.135; in data set [2] it was 0.578.

In the case of PDKRDHLIKLLN, the protein stability index in data set [1] was determined as 0.105; in data set [2], 0.599.

As for PDKRMHLIKLLN, the protein stability index in data set [1] came out at 0.0774; in data set [2], 0.592.

For PDKRNALIKLLN, the protein stability index in data set [1] was 0.142; in data set [2] it was 0.629.

PDKRNDLIKLLN: the values for the protein stability index in data set [1] and in data set [2] were 0.184 and 0.626, respectively.

As to PDKRNHLAKLLN, the protein stability index in data set [1] worked out at 0.0907; in data set [2], 0.547.

As for PDKRNHLGKLLN, the protein stability index in data set [1] is 0.428; in data set [2], 0.593.

On to PDKRNHLIKGLN, for which the protein stability index in data set [1] is 0.546; in data set [2], 0.619.

Consider PDKRNHLIKLGN, for which the protein stability index in data set [1] came to 0.617; in data set [2], 0.605.

On to PDKRNHLIKLLA, for which the protein stability index was found to be 0.114 in data set [1] and 0.57 in data set [2].

For PDKRNHLIKLLC, the protein stability index in data set [1] is 0.0722; in data set [2], 0.577.

With PDKRNHLIKLLF, the values for the protein stability index in data set [1] and in data set [2] were 0.269 and 0.576, respectively.

Consider PDKRNHLIKLLNQ, for which the protein stability index was 0.316 in data set [1] and 0.667 in data set [2].

As for PDKRNHLIKLLNR, the results for the protein stability index in data set [1] and in data set [2] were 0.652 and 0.668, respectively.

Turning to PDKRNHLIKLLNV, the figures for the protein stability index in data set [1] and in data set [2] were 0.203 and 0.659, respectively.

Turning to PDKRNHLIKLLS, the values for the protein stability index in data set [1] and in data set [2] were 0.102 and 0.653, respectively.

As to PDKRNHLTKLLN, the protein stability index came to 0.17 in data set [1] and 0.584 in data set [2].

For PDKRNHSIKLLN, the protein stability index is 0.174 in data set [1] and 0.631 in data set [2].

Regarding PDKRNHTIKLLN, the protein stability index was 0.176 in data set [1] and 0.582 in data set [2].

Regarding PDKRNLLIKLLN, the protein stability index in data set [1] turned out to be 0.124; in data set [2] it was 0.608.

For PDKRNNLIKLLN, the protein stability index came out at 0.155 in data set [1] and 0.589 in data set [2].

PDKRNSLIKLLN: the protein stability index in data set [1] stood at 0.163; in data set [2], 0.723.
